Experimental data: IntAct's records for PubMed 22020126

B1: Histone acetyltransferase KAT8 (Homo sapiens), Q9H7Z6 (parent)
chain: MAAQGAAAAVAAGTSGVAGEGEPGPGENAAAEGTAPSPGRVSPPTPARGEPEVTVEIGETYLCRRPDSTWHSAEVIQSRVNDQEGREEFYVHYVGFNRRLDEWVDKNRLALTKTVKDAVQKNSEKYLSELAEQPERKITRNQKRKHDEINHVQKTYAEMDPTTAALEKEHEAITKVKYVDKIHIGNYEIDAWYFSPFPEDYGKQPKLWLCEYCLKYMKYEKSYRFHLGQCQWRQPPGKEIYRKSNISVYEVDGKDHKIYCQNLCLLAKLFLDHKTLYFDVEPFVFYILTEVDRQGAHIVGYFSKEKESPDGNNVACILTLPPYQRRGYGKFLIAFSYELSKLESTVGSPEKPLSDLGKLSYRSYWSWVLLEILRDFRGTLSIKDLSQMTSITQNDIISTLQSLNMVKYWKGQHVICVTPKLVEEHLKSAQYKKPPITVDSVCLKWAPPKHKQVKLSKK
B2: Histone acetyltransferase ESA1 (Saccharomyces cerevisiae), Q08649 (parent)
chain: MSHDGKEEPGIAKKINSVDDIIIKCQCWVQKNDEERLAEILSINTRKAPPKFYVHYVNYNKRLDEWITTDRINLDKEVLYPKLKATDEDNKKQKKKKATNTSETPQDSLQDGVDGFSRENTDVMDLDNLNVQGIKDENISHEDEIKKLRTSGSMTQNPHEVARVRNLNRIIMGKYEIEPWYFSPYPIELTDEDFIYIDDFTLQYFGSKKQYERYRKKCTLRHPPGNEIYRDDYVSFFEIDGRKQRTWCRNLCLLSKLFLDHKTLYYDVDPFLFYCMTRRDELGHHLVGYFSKEKESADGYNVACILTLPQYQRMGYGKLLIEFSYELSKKENKVGSPEKPLSDLGLLSYRAYWSDTLITLLVEHQKEITIDEISSMTSMTTTDILHTAKTLNILRYYKGQHIIFLNEDILDRYNRLKAKKRRTIDPNRLIWKPPVFTASQLRFAW

Variants of: B1
Conditions: with h4_yeast HHF1, P02309

Row | Variant | effect of a mutation on the interaction
1 | MAAQGAAAAVAAGTSGVAGEGEPGPGENAAAEGTAPSPGRVSPPTPARGEPEVTVEIGETYLCRRPDSTWHSAEVIQSRVNDQEGREEFYVHYVGFNRRLDEWVDKNRLALTKTVKDAVQKNSEKYLSELAEQPERKITRNQKRKHDEINHVQKTYAEMDPTTAALEKEHEAITKVKYVDKIHIGNYEIDAWYFSPFPEDYGKQPKLWLCEYCLKYMKYEKSYRFHLGQCQWRQPPGKEIYRKSNISVYEVDGKDHKIYCQNLCLLAKLFLDHRTLYFDVEPFVFYILTEVDRQGAHIVGYFSKEKESPDGNNVACILTLPPYQRRGYGKFLIAFSYELSKLESTVGSPEKPLSDLGKLSYRSYWSWVLLEILRDFRGTLSIKDLSQMTSITQNDIISTLQSLNMVKYWKGQHVICVTPKLVEEHLKSAQYKKPPITVDSVCLKWAPPKHKQVKLSKK [K274R] | disrupting interaction

Variants of: B1
Conditions: with h4_yeast HHF1, P02309
Remark: another data set of the same source

Row | Variant | effect of a mutation on the interaction
2 | MAAQGAAAAVAAGTSGVAGEGEPGPGENAAAEGTAPSPGRVSPPTPARGEPEVTVEIGETYLCRRPDSTWHSAEVIQSRVNDQEGREEFYVHYVGFNRRLDEWVDKNRLALTKTVKDAVQKNSEKYLSELAEQPERKITRNQKRKHDEINHVQKTYAEMDPTTAALEKEHEAITKVKYVDKIHIGNYEIDAWYFSPFPEDYGKQPKLWLCEYCLKYMKYEKSYRFHLGQCQWRQPPGKEIYRKSNISVYEVDGKDHKIYCQNLCLLAKLFLDHATLYFDVEPFVFYILTEVDRQGAHIVGYFSKEKESPDGNNVACILTLPPYQRRGYGKFLIAFSYELSKLESTVGSPEKPLSDLGKLSYRSYWSWVLLEILRDFRGTLSIKDLSQMTSITQNDIISTLQSLNMVKYWKGQHVICVTPKLVEEHLKSAQYKKPPITVDSVCLKWAPPKHKQVKLSKK [K274A] | disrupting interaction

Variants of: B2
Conditions: with h4_yeast HHF1, P02309

Row | Variant | effect of a mutation on the interaction
3 | MSHDGKEEPGIAKKINSVDDIIIKCQCWVQKNDEERLAEILSINTRKAPPKFYVHYVNYNKRLDEWITTDRINLDKEVLYPKLKATDEDNKKQKKKKATNTSETPQDSLQDGVDGFSRENTDVMDLDNLNVQGIKDENISHEDEIKKLRTSGSMTQNPHEVARVRNLNRIIMGKYEIEPWYFSPYPIELTDEDFIYIDDFTLQYFGSKKQYERYRKKCTLRHPPGNEIYRDDYVSFFEIDGRKQRTWCRNLCLLSKLFLDHATLYYDVDPFLFYCMTRRDELGHHLVGYFSKEKESADGYNVACILTLPQYQRMGYGKLLIEFSYELSKKENKVGSPEKPLSDLGLLSYRAYWSDTLITLLVEHQKEITIDEISSMTSMTTTDILHTAKTLNILRYYKGQHIIFLNEDILDRYNRLKAKKRRTIDPNRLIWKPPVFTASQLRFAW [K262A] | disrupting interaction

Variants of: B2
Conditions: with h4_yeast HHF1, P02309
Remark: another data set of the same source

Row | Variant | effect of a mutation on the interaction
4 | MSHDGKEEPGIAKKINSVDDIIIKCQCWVQKNDEERLAEILSINTRKAPPKFYVHYVNYNKRLDEWITTDRINLDKEVLYPKLKATDEDNKKQKKKKATNTSETPQDSLQDGVDGFSRENTDVMDLDNLNVQGIKDENISHEDEIKKLRTSGSMTQNPHEVARVRNLNRIIMGKYEIEPWYFSPYPIELTDEDFIYIDDFTLQYFGSKKQYERYRKKCTLRHPPGNEIYRDDYVSFFEIDGRKQRTWCRNLCLLSKLFLDHRTLYYDVDPFLFYCMTRRDELGHHLVGYFSKEKESADGYNVACILTLPQYQRMGYGKLLIEFSYELSKKENKVGSPEKPLSDLGLLSYRAYWSDTLITLLVEHQKEITIDEISSMTSMTTTDILHTAKTLNILRYYKGQHIIFLNEDILDRYNRLKAKKRRTIDPNRLIWKPPVFTASQLRFAW [K262R] | disrupting interaction

Variants of: B2
Conditions: with h4_yeast HHF1, P02309
Remark: another data set of the same source

Row | Variant | effect of a mutation on the interaction
5 | MSHDGKEEPGIAKKINSVDDIIIKCQCWVQKNDEERLAEILSINTRKAPPKFYVHYVNYNKRLDEWITTDRINLDKEVLYPKLKATDEDNKKQKKKKATNTSETPQDSLQDGVDGFSRENTDVMDLDNLNVQGIKDENISHEDEIKKLRTSGSMTQNPHEVARVRNLNRIIMGKYEIEPWYFSPYPIELTDEDFIYIDDFTLQYFGSKKQYERYRKKCTLRHPPGNEIYRDDYVSFFEIDGRKQRTWCRNLCLLSKLFLDHQTLYYDVDPFLFYCMTRRDELGHHLVGYFSKEKESADGYNVACILTLPQYQRMGYGKLLIEFSYELSKKENKVGSPEKPLSDLGLLSYRAYWSDTLITLLVEHQKEITIDEISSMTSMTTTDILHTAKTLNILRYYKGQHIIFLNEDILDRYNRLKAKKRRTIDPNRLIWKPPVFTASQLRFAW [K262Q] | decreasing interaction
